# From patent publication US8642834B2, “Methods for the identification of agents that inhibit mesenchymal-like tumor cells or their formation” (OSI Pharmaceuticals, LLC, priority 2009, dated 2014)
# B1: OSM: Oncostatin M from R&D systems, used at 100 ng/ml (protein, UniProt P13725 26-221, looked up)
# Oncostatin-M: AAIGSCSKEYRVLLGQLQKQTDLMQDTSRLLDPYIRIQGLDVPKLREHCRERPGAFPSEETLRGLGRRGFLQTLNATLGCVLHRLADLEQRLPKAQDLERSGLNIEDLEKLQMARPNILGLRNNIYCMAQLLDNSDTAEPTKAGRGASQPPTPTPASDAFQRKLEGCRFLHGYHRFMHSVGRVFSKWGESPNRSRR
# Assays:
# Type in all cases: cell-based, human
# [1] = test system: CFPAC-1 cells; test: Induction of EMT by growth factors and cytokines, E-cadherin and vimentin immunoblotting; settings: CFPAC-1 cells treated 7 days with ligand
# Description: The CFPAC1 cell line was cultured in DMEM media (Gibco #11960) supplemented with 10% FBS (Sigma), 2 mM L Glutamine (Gibco), at 37° C., 5% CO2. For 7 day treatments, cells were seeded on tissue culture plastic in complete growth media and allowed to attach overnight at cell densities that would provide approximately 60-80% confluence at end of experiment. Ligand and/or inhibitor was added the following day (Day 0) in complete growth media and incubated at 37° C., 5% CO2. Ligand source and concentrations used are as follows: [1] From R&D systems, SDF-1α (stromal derived factor-1 alpha) at 100 ng/ml, TRANCE (TNF-related activation induced cytokine) at 50 ng/ml, FGF1 (fibroblast growth factor acidic) at 10 ng/ml, FGF2 (fibroblast growth factor basic) at 10 ng/ml, BMP4 (bone morphogenetic protein 4) at 100 ng/ml, BMP7 (bone morphogenetic protein 7) at 100 ng/ml, IGF2 (insulin-like growth factor 2) at 100 ng/ml, OSM (Oncostatin M) at 100 ng/ml, NRG1 (Neuregulin-1) at 50 ng/ml, PDGFaa (Platelet derived growth factor a) at 50 ng/ml, PDGFbb (platelet derive growth factor b) at 30 ng/ml, Ang2 (Angiopoeitin 2) at 400 ng/ml, amphiregulin at 100 ng/ml, HMGB 1 (Human high-mobility group box 1 protein) at 50 ng/ml; [2] From Genscript, LIF (Leukemia inhibitory factor) at 20 ng/ml, GM-CSF (Granulocyte macrophage colony stimulating factor) at 25 ng/ml, M-CSF (Macrophage colony stimulating factor) at 50 ng/ml; [3] From Anaspec, PAR1 (Protease activated receptor 1 agonist) at 100 μM; PAR2 (Protease activated receptor 2 agonist; peptide SLIGKV-NH2, Cat. No. 60217-1) at 100 μM; PAR4 (Protease activated receptor […] agonist; peptide AYPGKF-NH2, Cat. No. 60218-1) at 100 μM; [4] From Peprotech, HGF (Hepatocyte Growth Factor) at 100 ng/ml; IL-31 (Interleukin-31) at 50 ng/ml, IL-33 (Interleukin-33) at 50 ng/ml, IL1-a (Interleukin-1 alpha) at 10 ng/ml, CTGF (Connective tissue growth factor) at 20 ng/ml, WISP1 (Wnt-1 inducible signaling pathway protein) at 20 ng/ml, PTHrP ([…] hormone-related protein) at 50 ng/ml, MCP1 (monocyte chemotactic protein-1) at 50 ng/ml; and [5] from Sigma, Fulvestrant at 1 μM. Fresh medium containing ligand and/or inhibitor was added 3-4 days after initial dose, and at Day 7 cells were harvested for western blot analysis.
# Cells were harvested by washing once with PBS, and lysing on ice for 10 minutes with scraping (using a Cell Lifter, Corning Inc. #3008) in ice cold RIPA buffer (Sigma R0278) containing Protease inhibitor (Sigma P8340), Phosphatase inhibitors (Sigma P2850, P5726) and 200 μM Sodium Vanadate. Supernatents were micro-centrifuged at max speed, 4° C. for 10 minutes. Protein content was quantitated using the BCA method (Pierce #23225) and samples were normalized to total protein in Laemli buffer and heated at 100° C. for 10 minutes. SDS PAGE was run using a Bis-Tris gel system (Invitrogen NuPAGE) with MOPS buffer (Invitrogen NP0001), transferred onto nitrocellulose using the iBLOT system (Invitrogen) and blocked in PBS-T (0.1% Tween 20), 5% non-fat milk or BSA in guidance with primary Ab supplier requirements. All primary antibodies were incubated overnight at 4° C. in PBS-T (0.1% Tween 20) in either 5% non-fat milk or BSA, diluted to the following working dilutions: anti E Cadherin (Santa Cruz #sc-21791) 1:500 dilution; anti Vimentin (BD Biosciences #550513) 1:2000 dilution;); anti GAPDH HRP conjugate (Santa Cruz sc-25778) 1:1000 dilution; anti β-Actin (Sigma, A5441) 1:10,000 dilution. […]
# [2] = test system: CFPAC1 cells; test: Doubling time after ligand treatment; settings: after 7 day ligand treatment, versus untreated
# Description: Cells were plated and treated with ligand for 7 days. On day 7, cells were counted and re-plated on 6 cm cell culture dishes. On days 3, 5, 7, 10 and 12, cells were trypsinized and counted to determine the total number of cells in the dish, in duplicate. Doubling time was calculated using the multiple time point method on the website www.doubling-time.com.
# [3] = test system: CFPAC1 cells; test: 2D immunofluorescence of E-cadherin and vimentin; settings: cells treated 7 days with ligand, compared to untreated cells
# Description: Cells were plated on coverslips and stimulated with ligand the following day (day 0). On day 4, medium and ligands were refreshed. After 7 days, the cells were fixed in 4% paraformaldehyde (EMS#15701)/PBS (Gibco #14190) for 10 minutes at room temperature, and then permeabilized in 0.1% Triton X-100 (Sigma #P1379)/PBS for 10 minutes. Cells were blocked in 3% BSA/PBS for one hour and incubated in primary antibody solution (E-cadherin, Santa Cruz #sc21791 and Vimentin, Chemicon #AB5733 in blocking buffer) for two hours at room temperature. Cells were washed in PBS and incubated in secondary antibody (Invitrogen #A11029 and Chemicon #AP194R) for one hour followed by nuclear counterstain TO-PRO3 (Invitrogen #T3605). Coverslips were mounted on slides with Pro-Long Gold antifade reagent (Invitrogen P36934). Images were captured on a Leica DMRXE microcope with SP2 scanner using Leica Confocal Software.
# [4] = test system: CFPAC-1 cells; test: MET/EMT reversion experiment (ligand withdrawal); settings: ligand 14 days, then removed; morphology and E-cadherin/vimentin immunoblot
# Description: Cells were cultured in complete medium with and without ligand for 14 days, during which time the media and ligand treatment was replaced every 3-4 days. 3 Days prior to the first time point (Day 14), cells were trypsinised, counted and seeded into plastic 35 mm dishes at appropriate seeding densities for the first 3 collection time points. 3 Days prior to the last of the 3 collection time points, the procedure was repeated for the second 3 collection time points, and so on until all time points were collected. Ligand was removed from all cultures at Day 14. At the time of harvest, cells were harvested as described in the western blotting section above. All samples were micro-centrifuged and stored at −80° C. until the end of the experiment, at which time all samples were processed for western blotting.
molecule,measurement,setting,value
B1,"Induction of EMT (E-cadherin down, vimentin up)",[1],most complete EMT
same,Increase of doubling time,[2],approximately 50%
same,E-cadherin and vimentin staining,[3],strong vimentin staining with no E-cadherin
same,Reversal of EMT upon withdrawal of ligand,[4],can be reversed
